Assay results as given in patent publication US20120253017A1.
Each block holds one substance with its values, some of them ahead of it.

Experiments:
[1] = biological target: human Stem Cell Factor, 6xHIS tag (human) (UniProt P21583); assay: BIAcore, SCF on CM5 chip
[2] = biological target: mouse Stem Cell Factor, 6xHIS tag (mouse) (UniProt P20826); assay: BIAcore, SCF on CM5 chip
[3] = biological target: mouse Stem Cell Factor, 6xHIS tag (mouse) (UniProt P20826); assay: BIAcore, SCF on high density CM5 chip
[4] = biological target: rat Stem Cell Factor, GlySerHis(6) tag (rat) (UniProt P21581); assay: BIAcore, SCF on high density CM5 chip
[5] = biological target: mouse c-kit (recombinant, on BIAcore chip) (mouse) (UniProt P05532); assay: BIAcore, mouse cKIT on high density CM5 chip

Chain of mouse Stem Cell Factor, 6xHIS tag (mouse) (P20826 26-190 limits assumed): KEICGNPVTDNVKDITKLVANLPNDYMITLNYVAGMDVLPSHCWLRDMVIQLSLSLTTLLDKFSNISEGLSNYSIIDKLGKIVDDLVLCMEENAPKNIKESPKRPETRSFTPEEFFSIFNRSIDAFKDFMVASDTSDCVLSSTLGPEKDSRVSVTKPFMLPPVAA
Chain of human Stem Cell Factor, 6xHIS tag (human) (P21583 26-190 limits assumed): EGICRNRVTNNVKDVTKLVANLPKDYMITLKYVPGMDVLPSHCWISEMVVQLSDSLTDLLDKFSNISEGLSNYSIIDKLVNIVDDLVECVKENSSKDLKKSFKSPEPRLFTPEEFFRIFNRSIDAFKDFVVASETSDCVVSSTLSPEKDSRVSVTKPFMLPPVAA
Chain of rat Stem Cell Factor, GlySerHis(6) tag (rat) (P21581 other isoform, or with tags, fused parts or gaps limits assumed): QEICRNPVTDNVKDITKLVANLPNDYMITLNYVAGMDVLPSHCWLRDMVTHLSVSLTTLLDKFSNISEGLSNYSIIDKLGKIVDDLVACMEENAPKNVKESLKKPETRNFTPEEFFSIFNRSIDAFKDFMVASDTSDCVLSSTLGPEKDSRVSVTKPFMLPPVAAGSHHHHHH

Kd [1]: 9.78 nM
Kd [2]: 15 nM
Substance: Cyno cKIT ECD-Fc (from UniProt O95905) (Fc fusion)

Kd [3]: 26 nM
Kd [4]: 81 nM
Substance: mcKIT GNNK+ E207A (from UniProt P05532 25-527) (Fc fusion)

response (RU) [5]: 100 RU
Substance: anti mouse cKIT antibody clone 2B8
